Patent US20220072097A1, “PEPTIDES AND METHODS FOR TREATING NEURODEGENERATIVE DISORDERS” (OHIO STATE INNOVATION FOUNDATION, priority 2016, published 2022)

Tests used:
[1] = biological target: T1, human APP fragment (SEQ ID NO:1) (Homo sapiens, UniProt P05067); assay: Kinetic ELISA binding of PTPσ fragments to human APP fragment; conditions: recombinant proteins, compared with IG1,2
T1 construct: made in house
Description: (§1) FIG. 20 Ligand binding site of PTPσ IG1 domain interacts with APP. Binding of human APP fragment (SEQ ID NO:1) with various PTPσ fragments is measured by kinetic ELISA assay. APP fragment corresponds to SEQ ID NO:1, which is a region between E1 and E2 domains. PTPσ fragments used here include IG1,2 (containing IG1 and IG2 domains), ΔLysIG1,2 (containing IG1 and IG2 domains, with lysine 67, 68, 70, 71 mutated to alanine), IG1-FN1 (containing IG1, IG2, IG3 and FN1 domains), ECD (full extracellular domain of PTPσ containing all 3 IG domains and 4 FN domains). Value shown are mean±SEM, n=3 for each group. ***, p≤0.001, Student t test, comparison with the IG1,2.
(§2) Domain regions were subcloned from human APP695 (construct by Denis Selkoe and Tracy Yang labs purchased through Addgene.com) and PTPσ (constructs from Radu Aricescu lab). Recombinant APP and PTPσ proteins were tested in solid phase ELISA binding assays to define the binding regions on each partner. […] Comparing APP binding strength of difference PTPσ fragments, it appears that inclusion of the fibronectin (FN) domains of PTPσ weakens the interaction with APP, likely due to folding of PTPσ that covers up the ligand binding site in its IG1 domain^61.

PTPσ = assay: Solid phase ELISA binding of recombinant APP domains to PTPσ; parameters: species or system human; conditions: recombinant proteins, solid phase ELISA binding assay
Description: as §1, §2

Row | Molecule | Binding of PTPσ fragment with APP SEQ ID NO:1 [1] | Interaction of APP region with PTPσ (PTPσ)
1 | Full PTPσ extracellular domain: full extracellular domain of PTPσ containing all 3 IG domains and 4 FN domains (protein, UniProt Q13332 30-1282, looked up, extracellular domain, full extracellular domain of PTPσ containing all 3 IG domains and 4 FN domains) extracellular domain: EEPPRFIKEPKDQIGVSGGVASFVCQATGDPKPRVTWNKKGKKVNSQRFETIEFDESAGAVLRIQPLRTPRDENVYECVAQNSVGEITVHAKLTVLREDQLPSGFPNIDMGPQLKVVERTRTATMLCAASGNPDPEITWFKDFLPVDPSASNGRIKQLRSETFESTPIRGALQIESSEETDQGKYECVATNSAGVRYSSPANLYVRELREVRRVAPRFSILPMSHEIMPGGNVNITCVAVGSPMPYVKWMQGAEDLTPEDDMPVGRNVLELTDVKDSANYTCVAMSSLGVIEAVAQITVKSLPKAPGTPMVTENTATSITITWDSGNPDPVSYYVIEYKSKSQDGPYQIKEDITTTRYSIGGLSPNSEYEIWVSAVNSIGQGPPSESVVTRTGEQAPASAPRNVQARMLSATTMIVQWEEPVEPNGLIRGYRVYYTMEPEHPVGNWQKHNVDDSLLTTVGSLLEDETYTVRVLAFTSVGDGPLSDPIQVKTQQGVPGQPMNLRAEARSETSITLSWSPPRQESIIKYELLFREGDHGREVGRTFDPTTSYVVEDLKPNTEYAFRLAARSPQGLGAFTPVVRQRTLQSKPSAPPQDVKCVSVRSTAILVSWRPPPPETHNGALVGYSVRYRPLGSEDPEPKEVNGIPPTTTQILLEALEKWTQYRITTVAHTEVGPGPESSPVVVRTDEDVPSAPPRKVEAEALNATAIRVLWRSPAPGRQHGQIRGYQVHYVRMEGAEARGPPRIKDVMLADAQWETDDTAEYEMVITNLQPETAYSITVAAYTMKGDGARSKPKVVVTKGAVLGRPTLSVQQTPEGSLLARWEPPAGTAEDQVLGYRLQFGREDSTPLATLEFPPSEDRYTASGVHKGATYVFRLAARSRGGLGEEAAEVLSIPEDTPRGHPQILEAAGNASAGTVLLRWLPPVPAERNGAIVKYTVAVREAGALGPARETELPAAAEPGAENALTLQGLKPDTAYDLQVRAHTRRGPGPFSPPVRYRTFLRDQVSPKNFKVKMIMKTSVLLSWEFPDNYNSPTPYKIQYNGLTLDVDGRTTKKLITHLKPHTFYNFVLTNRGSSLGGLQQTVTAWTAFNLLNGKPSVAPKPDADGFIMVYLPDGQSPVPVQSYFIVMVPLRKSRGGQFLTPLGSPEDMDLEELIQDISRLQRRSLRHSRQLEVPRPYIAARFSVLPPTFHPGDQKQYGGFDNRGLEPGHRYVLFVLAVLQKSEPTFAASPFSDPFQLDNPDPQPIVDGEEG | nearly lost binding | 
2 | … (protein, recombinant human APP fragment, the region between E1 and E2 domains) AEESDNVDSADAEEDDSDVWWGGADTDYADGSEDKVVEVAEEEEVAEVEEEEADDDEDDEDGDEVEEEAEEPYEEATERTTSIATTTTTTTESVEEVVR |  | high affinity
